Reference: the supplement of paper PMC10567573

B1: KRT71 (parent)
chain: FGSRSLYSLGGVRSLNVASGSGKS

Variants of: B1
Assay: protein stability index of a GFP-peptide fusion (GPS, HEK-293T) (PSI 1-6); higher = more stable
Settings: c terminus: a fixed tail appended
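Note: lentivirally expressed fusions sorted by FACS into six bins by GFP to DsRed ratio, PSI derived from sequencing read proportions per bin multiplied by bin number.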

Row | Variant | protein stability index
1 | S21E | 1.92
2 | S21T | 1.93
3 | S21M | 1.87
4 | S21A | 1.83
5 | S21N | 1.69
6 | S21I | 2.18
7 | S21H | 2.11
8 | S21D | 2.04
9 | S21F | 1.73
10 | S21L | 2.11
11 | S21P | 2.07
12 | S21W | 1.24
13 | S21G | 1.91
14 | S21K | 2.06
15 | S21R | 2.5
16 | S21Q | 2.29
17 | S21C | 1.49
18 | S21V | 1.41
19 | S14E | 2.66
20 | S14D | 1.92
21 | S14H | 2
22 | S14G | 2.04
23 | S14R | 1.5
24 | S14Y | 2.36

Row | Variant | protein stability index
25 | S14L | 2.04
26 | S14M | 1.65
27 | S14P | 1.71
28 | S14C | 1.58
29 | S14K | 1.81
30 | S14Q | 1.86
31 | S14V | 1.03
32 | S14A | 1.59
33 | S14F | 1.89
34 | S14T | 1.74
35 | S14N | 2.38
36 | S14I | 1.38
37 | S14W | 1.44
38 | S5M | 1.62
39 | S5I | 2.19
40 | S5E | 2.77
41 | S5D | 2.31
42 | S5A | 2.35
43 | S5G | 1.6
44 | S5V | 1.9
45 | S5C | 1.5
46 | S5F | 1.95
47 | S5N | 1.99
48 | S5W | 2.33

Row | Variant | protein stability index
49 | S5P | 2.91
50 | S5Y | 1.36
51 | S5Q | 2.16
52 | S5H | 2.24
53 | S5R | 2.77
54 | S5L | 2.15
55 | S5T | 1.64
56 | S5K | 2.65
57 | S8W | 2.62
58 | S8D | 3.44
59 | S8V | 2.23
60 | S8Y | 1.2
61 | S8P | 1.72
62 | S8E | 2.75
63 | S8K | 2.14
64 | S8A | 2.17
65 | S8N | 2.4
66 | S8C | 2.1
67 | S8G | 2
68 | S8R | 1.69
69 | S8T | 1.89
70 | S8I | 1.54
71 | S8F | 1.21
72 | S8H | 2.89

Row | Variant | protein stability index
73 | S8L | 2.2
74 | S8M | 1.38
75 | S8Q | 1.72
76 | L15C | 2.35
77 | L15T | 1.92
78 | L15G | 1.88
79 | L15F | 1.77
80 | L15D | 1.61
81 | L15V | 2.07
82 | L15P | 2.02
83 | L15S | 1.92
84 | L15I | 1.7
85 | L15E | 2.15
86 | L15H | 1.37
87 | L15W | 1.34
88 | L15K | 1.99
89 | L15N | 2.33
90 | L15R | 2.28
91 | L15A | 2.35
92 | L15M | 2.18
93 | L15Q | 2.51
94 | L15Y | 2.62
95 | G22A | 1.53
96 | G22E | 2.83

Row | Variant | protein stability index
97 | G22F | 1.49
98 | G22D | 2.15
99 | G22C | 1.69
100 | V17I | 1.94
101 | V17S | 1.92
102 | V17E | 1.59
103 | V17H | 1.97
104 | V17D | 2.13
105 | V17A | 1.91
106 | V17G | 1.91
107 | V17T | 2.52
108 | V17L | 2.5
109 | V17R | 1.7
110 | V17W | 1.86
111 | V17F | 2.17
112 | V17N | 1.83
113 | V17K | 2.01
114 | V17P | 1.92
115 | V17M | 2.38
116 | V17Q | 1.97
117 | V17Y | 2.07
118 | V17C | 2.31
119 | A18V | 1.88
120 | A18T | 1.62

Row | Variant | protein stability index
121 | A18C | 1.73
122 | A18M | 2.95
123 | A18S | 2.65
124 | A18H | 2.39
125 | A18P | 2.2
126 | A18K | 2.63
127 | A18D | 1.62
128 | A18Q | 1.78
129 | A18I | 1.39
130 | A18G | 2.1
131 | A18E | 2.11
132 | A18L | 2.27
133 | A18Y | 2.94
134 | A18R | 2.46
135 | A18F | 1.9
136 | A18W | 2.87
137 | A18N | 2.81
138 | G10D | 2.51
139 | G10L | 2.6
140 | G10V | 1.58
141 | G10M | 2.09
142 | G10C | 3.19
143 | G10Q | 2.08
144 | G10N | 2.16

Row | Variant | protein stability index
145 | G10Y | 1.94
146 | G10S | 1.83
147 | G10H | 2.56
148 | G10I | 3.84
149 | G10W | 2.79
150 | G10K | 1.9
151 | G10R | 1.6
152 | G10P | 2.03
153 | G10F | 1.5
154 | G10E | 2.31
155 | G10A | 1.66
156 | G10T | 2.05
157 | R4N | 2.12
158 | R4W | 1.62
159 | R4S | 2.31
160 | R4Y | 2.77
161 | R4Q | 2.5
162 | R4T | 2
163 | R4P | 1.35
164 | R4V | 1.52
165 | R4M | 1.88
166 | L6N | 2.76
167 | L6S | 2.13
168 | L6W | 2.94

Row | Variant | protein stability index
169 | L6D | 3.7
170 | L6R | 2.65
171 | L6H | 2.33
172 | L6Q | 2.62
173 | L6E | 3.14
174 | L6A | 1.67
175 | L6G | 1.77
176 | L6Y | 1.48
177 | L6F | 3.13
178 | L6T | 3.13
179 | L6C | 2.04
180 | L6I | 2.29
181 | L6K | 2.91
182 | L6P | 1.74
183 | L6V | 1.62
184 | L6M | 1.93
185 | S19G | 1.67
186 | S19K | 2.23
187 | S19T | 2.06
188 | S19C | 1.47
189 | S19N | 2.38
190 | S19E | 1.98
191 | S19V | 2.54
192 | S19M | 1.88

Row | Variant | protein stability index
193 | S19A | 1.8
194 | S19L | 1.47
195 | S19H | 1.53
196 | S19P | 1.8
197 | S19W | 2.85
198 | S19D | 1.89
199 | S19R | 1.92
200 | S19I | 1.44
201 | S19Y | 1.89
202 | S19Q | 2.03
203 | S19F | 1.47
204 | R13H | 1.81
205 | R13V | 1.74
206 | R13T | 1.28
207 | R13W | 1.67
208 | R13E | 1.86
209 | R13C | 2.29
210 | R13K | 1.34
211 | R13D | 2.06
212 | R13S | 2.48
213 | R13Y | 1.7
214 | R13N | 1.87
215 | R13A | 3.09
216 | R13P | 1.81

Row | Variant | protein stability index
217 | R13F | 1.72
218 | R13M | 1.26
219 | R13Q | 1.43
220 | R13L | 2.27
221 | R13I | 1.93
222 | R13G | 1.45
223 | V12N | 2.28
224 | V12T | 2.27
225 | V12F | 1.66
226 | V12K | 2
227 | V12G | 2.13
228 | V12C | 1.55
229 | V12D | 2.05
230 | V12I | 2.12
231 | V12P | 2.2
232 | V12S | 2.45
233 | V12W | 1.71
234 | V12Q | 2.11
235 | V12Y | 1.65
236 | V12E | 2.3
237 | V12M | 1.68
238 | V12L | 2.21
239 | V12A | 1.81
240 | V12H | 1.68

Row | Variant | protein stability index
241 | V12R | 2.37
242 | L9W | 1.87
243 | L9R | 2.56
244 | L9Y | 1.77
245 | L9M | 1.83
246 | L9I | 1.75
247 | L9Q | 2.79
248 | L9V | 2.62
249 | L9D | 2.56
250 | L9K | 2.27
251 | L9G | 2.66
252 | L9F | 1.88
253 | L9S | 2.18
254 | L9C | 2.12
255 | L9A | 2.5
256 | L9E | 2.59
257 | L9N | 2.51
258 | L9P | 2.6
259 | L9H | 2.75
260 | L9T | 2.64
261 | G11L | 2.9
262 | G11P | 1.8
263 | G11W | 2.62
264 | G11Q | 3.2

Row | Variant | protein stability index
265 | G11E | 2.92
266 | G11V | 4.85
267 | G11I | 5.35
268 | G11T | 2.4
269 | G11M | 2.71
270 | G11S | 2.11
271 | G11H | 2.33
272 | G11R | 2.46
273 | G11Y | 3.77
274 | G11N | 2.24
275 | G11K | 1.64
276 | G11D | 2.25
277 | G11C | 2.87
278 | N16E | 1.73
279 | N16W | 2.95
280 | N16G | 1.1
281 | N16Q | 2.44
282 | N16R | 2.07
283 | N16L | 1.73
284 | N16H | 2.21
285 | N16F | 2.22
286 | N16S | 2.15
287 | N16V | 2.06
288 | N16P | 2.04

Row | Variant | protein stability index
289 | N16T | 1.47
290 | N16I | 1.29
291 | N16A | 1.93
292 | N16M | 1.83
293 | N16D | 2.38
294 | N16K | 2.02
295 | N16C | 1.97
296 | N16Y | 2.16
297 | G20Q | 1.87
298 | G20N | 1.82
299 | G20F | 2.04
300 | G20M | 1.49
301 | G20H | 1.67
302 | G20W | 1.82
303 | G20P | 2
304 | G20V | 1.92
305 | G20D | 2.18
306 | G20C | 1.54
307 | G20A | 1.96
308 | G20I | 1.72
309 | G20S | 1.87
310 | G20T | 2.16
311 | G20R | 1.97
312 | G20E | 1.49

Row | Variant | protein stability index
313 | G20Y | 1.87
314 | G20K | 1.5
315 | G20L | 1.55
316 | Y7N | 3.26
317 | Y7G | 2.81
318 | Y7M | 2.54
319 | Y7H | 2.98
320 | Y7R | 3.57
321 | Y7L | 1.6
322 | Y7C | 2.48
323 | Y7E | 4.17
324 | Y7W | 2.05
325 | Y7P | 3.75
326 | Y7T | 2.55
327 | Y7F | 3.01
328 | Y7S | 3.89
329 | Y7I | 2.32
330 | Y7Q | 3.91
331 | Y7A | 3.46
332 | Y7D | 3.53
333 | Y7K | 3.02
334 | Y7V | 2.83
